Experimental data reported in the supplement of paper PMC10567573.

B1: NCF4 (parent)
chain: FVKILKDFPEEDDPTNWLRCYYYE

Variants of: B1
Experiment: protein stability index of a GFP-peptide fusion (GPS, HEK-293T) (PSI 1-6); higher = more stable
Details: c terminus: a fixed tail appended
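Also: lentivirally expressed fusions sorted by FACS into six bins by GFP to DsRed ratio, PSI derived from sequencing read proportions per bin multiplied by bin number.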

Variant	protein stability index
FDKILKDFPEEDDPTNWLRCYYYE	2.05
FNKILKDFPEEDDPTNWLRCYYYE	2.11
FRKILKDFPEEDDPTNWLRCYYYE	2.38
FLKILKDFPEEDDPTNWLRCYYYE	1.76
FEKILKDFPEEDDPTNWLRCYYYE	3.02
FVKILKQFPEEDDPTNWLRCYYYE	1.07
FVKILKDFPEEDGPTNWLRCYYYE	1.04
FVKILKDFPEEDMPTNWLRCYYYE	3.83
FVKILKDFPEEDHPTNWLRCYYYE	2.54
FVKILKDFPEEDVPTNWLRCYYYE	1.53
FVKILKDFPEEDFPTNWLRCYYYE	3.57
FVKILKDFPEYDDPTNWLRCYYYE	1.96
FVKILKDFPETDDPTNWLRCYYYE	2.96
FVKILKDFPEIDDPTNWLRCYYYE	2.4
FVKITKDFPEEDDPTNWLRCYYYE	2.17
FVKIRKDFPEEDDPTNWLRCYYYE	2.09
FVKILKDFPEEDDPTNWHRCYYYE	1.66
FVKILKDFPEEDDPTNWPRCYYYE	2.42
FVKILKDFPEEDDPTNWRRCYYYE	1.9
FVRILKDFPEEDDPTNWLRCYYYE	1.17
FVPILKDFPEEDDPTNWLRCYYYE	2.45
FVEILKDFPEEDDPTNWLRCYYYE	2
FVDILKDFPEEDDPTNWLRCYYYE	2.11
FVCILKDFPEEDDPTNWLRCYYYE	1.26

Variant	protein stability index
FVQILKDFPEEDDPTNWLRCYYYE	2.05
FVAILKDFPEEDDPTNWLRCYYYE	2.19
FVKILKDFPEEDDPTNWLICYYYE	1.84
FVKILKDFPEEDDPTNWLQCYYYE	1.42
FVKILKDFPEEDDPTNWLLCYYYE	1.78
FVKILKDFPEEDDPTNWLKCYYYE	4.32
FVKILKDFPEEDDPTNWLYCYYYE	3.01
FVKILKDFNEEDDPTNWLRCYYYE	2.15
FVKILKDFKEEDDPTNWLRCYYYE	1.37
FVKILKDFCEEDDPTNWLRCYYYE	1.26
FVKILKDFWEEDDPTNWLRCYYYE	1.27
FVKILKDFFEEDDPTNWLRCYYYE	1.1
FVKILKDFPEEDDITNWLRCYYYE	1.15
FVKILKDFPEEDDGTNWLRCYYYE	2.52
FVKILKDFPEEDDHTNWLRCYYYE	3.08
FVKILKDFPEEDDPTNWLRCYCYE	1.92
FVKILKDFPEEDDPTNWLRCYPYE	1.41
FVKILKDFPEEDDPTNWLRCYDYE	2.29
FVKILKDFPEEDDPTNWLRCYRYE	2.46
FVKILKDFPEEDDPTNWLRCYIYE	1.75
FVKILKDFPEEDDPTNWLRCYEYE	2.1
RVKILKDFPEEDDPTNWLRCYYYE	2.25
KVKILKDFPEEDDPTNWLRCYYYE	2.68
WVKILKDFPEEDDPTNWLRCYYYE	3.29

Variant	protein stability index
MVKILKDFPEEDDPTNWLRCYYYE	2.11
TVKILKDFPEEDDPTNWLRCYYYE	2.6
IVKILKDFPEEDDPTNWLRCYYYE	2.09
FVKILKDFPEEHDPTNWLRCYYYE	1.52
FVKILKDFPEEYDPTNWLRCYYYE	2.35
FVKILKDFPEEDDPTNWLRCYYTE	1.57
FVKILKDFPEEDDPTNWLRCYYSE	1.83
FVKILKDFPEEDDPTNWLRCYYHE	1.51
FVKILKDFPEEDDPTNWLRCYYVE	1.3
FVKILKDFPEEDDPTNWLRCCYYE	1.61
FVKILKDFPEEDDPTNWLRCNYYE	3.57
FVKILKDFPEEDDPTNWLRCDYYE	2.02
FVKILKDFPEEDDPTNWLRCSYYE	1.8
FVKILKDFPEEDDPYNWLRCYYYE	1.84
FVKILKDFPEEDDPINWLRCYYYE	1.44
FVKILKDFPEEDDPANWLRCYYYE	2.18
FVKILKDFPEEDDPTPWLRCYYYE	2.55
FVKILKDFPEEDDPTSWLRCYYYE	1.53
FVKILKDFPEEDDPTVWLRCYYYE	1.82
FVKILKDFPEEDDPTGWLRCYYYE	1.61
FVKILKDFPEEDDPTTWLRCYYYE	2.25
FVKILKDRPEEDDPTNWLRCYYYE	1.69
FVKILKDHPEEDDPTNWLRCYYYE	3.3
FVKHLKDFPEEDDPTNWLRCYYYE	2.17

Variant	protein stability index
FVKELKDFPEEDDPTNWLRCYYYE	1.65
FVKMLKDFPEEDDPTNWLRCYYYE	2.39
FVKTLKDFPEEDDPTNWLRCYYYE	1.54
FVKQLKDFPEEDDPTNWLRCYYYE	2.15
FVKILKDFPVEDDPTNWLRCYYYE	1.62
FVKILKDFPAEDDPTNWLRCYYYE	1.47
FVKILKDFPREDDPTNWLRCYYYE	1.7
FVKILKDFPMEDDPTNWLRCYYYE	2.93
FVKILKDFPEEDDPTNWLRRYYYE	2.12
FVKILKDFPEEDDPTNWLRFYYYE	2.03
FVKILKDFPEEDDPTNWLRNYYYE	2.74
FVKILKDFPEEDDPTNWLRLYYYE	1.69
FVKILKDFPEEDDPTNWLRPYYYE	1.23
FVKILKDFPEEDDPTNWLRYYYYE	1.9
FVKILNDFPEEDDPTNWLRCYYYE	3.4
FVKILTDFPEEDDPTNWLRCYYYE	1.95
FVKILKDFPEEDDPTNWLRCYYYI	2.39
FVKILKDFPEEDDPTNWLRCYYYT	1.23
FVKILKDFPEEDDPTNWLRCYYYK	1.99
FVKILKDFPEEDDPTNWLRCYYYL	2.95
FVKILKDFPEEDDPTNWLRCYYYW	1.6
FVKILKDFPEEDDPTNDLRCYYYE	1.91
